In patent US20190381186A1 (TRUSTEES OF BOSTON UNIVERSITY, published 2019):

B1: receiving peptide MK(LKKIKSV)4VGER (peptide)
peptide: MKLKKIKSVLKKIKSVLKKIKSVLKKIKSVVGER
notes: With the docking peptide it is said to form a tetramer of two peptides of each type; also called V/K peptide

Key:
[1] = target: the molecule itself; assay: circular dichroism spectra, 200-260 nm
[2] = target: B1; assay: isothermal titration calorimetry (FIG. 2C); ITC, docking peptide with receiving peptide (FIG. 2C)

Binder | binding result [1] | Kd [2] [nM]
B1 | no binding (tested: 100 µM) | –
MKLEEIVSELEEIVSELEEIVTELEEIVSEVGER (also called V/E peptide) [docking peptide MK(LEEIVSE)2LEEIVTELEEIVSEVGER] | no binding (tested: 100 µM) | 62
